Assay results reported in article PMC5492851.

What was measured:
[1] = target: cellular microtubules (polymerised tubulin) (human (endogenous in HeLa)) (UniProt P68363)
[2] = target: cellular microtubules (polymerised tubulin) (human (endogenous in HeLa)) (UniProt P68363); test: FRAP; as a1, cells treated with 1 μM Nocodazole (30 min before and during FRAP) to disassemble microtubules
[3] = target: cellular microtubules (polymerised tubulin) (human (endogenous in HeLa)) (UniProt P68363); remark: listed apart in the source
[4] = target: cellular microtubules (polymerised tubulin) (human (endogenous in HeLa)) (UniProt P68363); test: FRAP; live untreated reporter cells, 37°C, 5% CO2; EYFP bleached in a circular ROI of 2 μm radius in the cytoplasm; recovery fitted with two exponentials (A1 diffusing phase, A2 MT-bound phase)

UniProt P68363, sequence (P68363 whole entry, chain 1 of 2): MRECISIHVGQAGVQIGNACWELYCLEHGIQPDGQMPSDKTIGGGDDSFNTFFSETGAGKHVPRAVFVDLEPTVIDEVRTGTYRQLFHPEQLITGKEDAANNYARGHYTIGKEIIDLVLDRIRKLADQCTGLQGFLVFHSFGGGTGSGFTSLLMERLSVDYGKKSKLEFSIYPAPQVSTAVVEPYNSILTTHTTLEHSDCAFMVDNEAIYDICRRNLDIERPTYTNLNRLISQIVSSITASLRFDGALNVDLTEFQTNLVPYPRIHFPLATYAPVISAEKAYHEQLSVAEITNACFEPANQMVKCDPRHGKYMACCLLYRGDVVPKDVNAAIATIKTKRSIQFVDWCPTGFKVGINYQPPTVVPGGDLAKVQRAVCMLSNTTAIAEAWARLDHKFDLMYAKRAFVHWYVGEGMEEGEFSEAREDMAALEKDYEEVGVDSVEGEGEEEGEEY
UniProt P68363, sequence (P07437 whole entry, chain 2 of 2, further chain): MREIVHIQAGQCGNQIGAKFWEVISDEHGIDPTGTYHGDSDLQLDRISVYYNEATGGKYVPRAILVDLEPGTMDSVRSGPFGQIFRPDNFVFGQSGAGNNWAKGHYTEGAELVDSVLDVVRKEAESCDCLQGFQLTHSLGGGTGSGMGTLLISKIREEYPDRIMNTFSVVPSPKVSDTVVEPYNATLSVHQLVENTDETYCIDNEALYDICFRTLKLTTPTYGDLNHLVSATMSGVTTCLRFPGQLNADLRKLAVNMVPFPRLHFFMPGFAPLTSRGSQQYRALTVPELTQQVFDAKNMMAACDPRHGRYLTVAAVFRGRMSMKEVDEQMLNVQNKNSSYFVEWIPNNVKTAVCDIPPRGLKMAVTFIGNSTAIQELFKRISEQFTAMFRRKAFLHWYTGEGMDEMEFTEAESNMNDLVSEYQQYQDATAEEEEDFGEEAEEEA

Conformational Sensitive Tau sensor (ECFP-Tau-EYFP, full length human Tau-D, 0N4R) (from UniProt P10636-6 1-383) (natural protein)
NFRET of CST during treatment with 1 μM nocodazole (time course; at 10 min) [1]: 50% | fraction of the mobile molecules in the MT-bound phase (A2), with Nocodazole [2]: 47% | NFRET of CST (intramolecular, ECFP to EYFP) along MTs in untreated cells [3]: 14.5 | fraction of the mobile molecules in the MT-bound phase (A2) [4]: 72% | time constant of fluorescence recovery of the MT-bound phase (τ2) [4]: 35.2 s
